Holding throughout (test): BLI
In assay [1] the target is WRAIR-5021 (rhesus macaque).
Assay [2] concerns the target WRAIR-5020 (rhesus macaque).
In assay [3] the target is WRAIR-5005 (rhesus macaque).
Assay [4] has as its target WRAIR-5011 (rhesus macaque).
In assay [5] the target is WRAIR-5001 (rhesus macaque | human).
In assay [6] the target is WRAIR-5004 (rhesus macaque).
WRAIR-5004 (rhesus macaque), sequence (VH, as listed by the source, chain 1 of 2): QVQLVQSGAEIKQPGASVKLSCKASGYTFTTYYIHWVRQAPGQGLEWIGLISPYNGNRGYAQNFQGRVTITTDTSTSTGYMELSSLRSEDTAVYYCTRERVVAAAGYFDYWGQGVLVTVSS
WRAIR-5004 (rhesus macaque), sequence (VL, as listed by the source, chain 2 of 2): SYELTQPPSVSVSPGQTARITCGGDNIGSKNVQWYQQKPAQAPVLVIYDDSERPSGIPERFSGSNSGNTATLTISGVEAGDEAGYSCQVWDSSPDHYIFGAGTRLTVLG

WRAIR-5020 (rhesus macaque), sequence (VH, as listed by the source, chain 1 of 2): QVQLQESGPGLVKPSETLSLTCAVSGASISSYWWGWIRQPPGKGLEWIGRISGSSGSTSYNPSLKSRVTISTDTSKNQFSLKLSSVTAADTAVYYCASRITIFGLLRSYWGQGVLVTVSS
WRAIR-5020 (rhesus macaque), sequence (VL, as listed by the source, chain 2 of 2): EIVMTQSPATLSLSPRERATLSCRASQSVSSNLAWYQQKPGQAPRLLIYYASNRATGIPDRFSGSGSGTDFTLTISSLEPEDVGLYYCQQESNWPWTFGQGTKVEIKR
WRAIR-5005 (rhesus macaque), sequence (VH, as listed by the source, chain 1 of 2): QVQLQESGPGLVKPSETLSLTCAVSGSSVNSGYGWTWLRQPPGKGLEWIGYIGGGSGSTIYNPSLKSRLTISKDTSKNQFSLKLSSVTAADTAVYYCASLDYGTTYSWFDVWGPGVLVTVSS
WRAIR-5005 (rhesus macaque), sequence (VL, as listed by the source, chain 2 of 2): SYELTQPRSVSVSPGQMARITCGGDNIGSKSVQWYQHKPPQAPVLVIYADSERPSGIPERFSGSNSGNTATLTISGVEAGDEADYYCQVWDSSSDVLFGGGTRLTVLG
WRAIR-5021 (rhesus macaque), sequence (VH, as listed by the source, chain 1 of 2): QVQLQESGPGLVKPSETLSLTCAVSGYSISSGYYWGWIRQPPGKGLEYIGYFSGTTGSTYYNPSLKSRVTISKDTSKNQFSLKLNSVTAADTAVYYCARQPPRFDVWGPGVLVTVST
WRAIR-5021 (rhesus macaque), sequence (VL, as listed by the source, chain 2 of 2): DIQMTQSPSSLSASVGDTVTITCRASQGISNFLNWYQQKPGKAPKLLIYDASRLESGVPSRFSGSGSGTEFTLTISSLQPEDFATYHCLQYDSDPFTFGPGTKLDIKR
WRAIR-5011 (rhesus macaque), sequence (VH, as listed by the source, chain 1 of 2): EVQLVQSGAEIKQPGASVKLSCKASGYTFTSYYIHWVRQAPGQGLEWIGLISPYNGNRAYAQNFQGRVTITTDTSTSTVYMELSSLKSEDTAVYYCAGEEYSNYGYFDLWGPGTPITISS
WRAIR-5011 (rhesus macaque), sequence (VL, as listed by the source, chain 2 of 2): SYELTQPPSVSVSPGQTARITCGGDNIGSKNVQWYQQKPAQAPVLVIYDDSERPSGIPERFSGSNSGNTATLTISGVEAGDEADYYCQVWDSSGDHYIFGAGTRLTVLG

Consider “SARS-CoV-2 Omicron BA.1 RBD (from UniProt P0DTC2 331-527) (domain or fragment)”, for which the dissociation constant Kd (usually the constant that tells how readily two partners part at equilibrium) in assay [1] stood at 8.05 nM; in assay [2] it was 24.1 nM; in assay [3], 14.9 nM; in assay [4], 0.38 nM; in assay [5], 0.23 nM; in assay [6], 1.93 nM.

Turning to “SARS-CoV-2 Omicron BA.4/5 RBD (from UniProt P0DTC2 331-527) (domain or fragment)”, the Kd in assay [1] came out at 2.63 nM; in assay [2], 34.5 nM; in assay [3] it was 41.1 nM; in assay [4], 0.42 nM; in assay [5], 0.92 nM; in assay [6], 3.1 nM.

Source of the values: PMC10764318.
